From patent US20130130379A1 (published 2013) come the findings set out here.

Experiment [1] concerns the target parathyroid hormone receptor (PTHR1). The experiment can be described thus: Biacore (SPR); PTHR + CaCl2; the table names no quantity; upper end of the range.
The target is the same in experiment [2]. The experiment can be described thus: Biacore (SPR); PTHR - CaCl2; the table names no quantity; upper end of the range. A general note: SPR reads the build-up and loss of mass on a sensor chip optically.
Experiment [3] shares this target. The experiment can be described thus: Biacore (SPR); PTHR - CaCl2; the table names no quantity; lower end of the range.
Experiment [4] has the same target. As to the kind of experiment: Biacore (SPR); PTHR + CaCl2; the table names no quantity; lower end of the range.
Experiment [5] addresses T1, Human CXCR4 (human, UniProt P61073-2 2-356).
T1 construct: also called hCXCR4
The experiment can be described thus: membrane binding experiments, displacement of 125I-CXCL12. (In general: In a radioligand displacement assay an active substance lowers the binding of a labelled ligand.)

Experiment [6] has as its target parathyroid hormone receptor (PTHR1). As to the kind of experiment: Biacore (SPR); PTHR + CaCl2; the table names no quantity.
For experiment [7] the target is unchanged. The experiment can be described thus: Biacore (SPR); PTHR Fos12; the table names no quantity.
The next experiment concerns the target T2, Human CXCR7 (human, UniProt P25106 1-362).
T2 construct: also called hCXCR7
As to the kind of experiment: phage ELISA and FACS.

For experiment [8], the target named is parathyroid hormone receptor (PTHR1). As to the kind of experiment: Biacore (SPR); PTHR - CaCl2; the table names no quantity.
parathyroid hormone receptor (PTHR1), sequence (Q03431 27-593): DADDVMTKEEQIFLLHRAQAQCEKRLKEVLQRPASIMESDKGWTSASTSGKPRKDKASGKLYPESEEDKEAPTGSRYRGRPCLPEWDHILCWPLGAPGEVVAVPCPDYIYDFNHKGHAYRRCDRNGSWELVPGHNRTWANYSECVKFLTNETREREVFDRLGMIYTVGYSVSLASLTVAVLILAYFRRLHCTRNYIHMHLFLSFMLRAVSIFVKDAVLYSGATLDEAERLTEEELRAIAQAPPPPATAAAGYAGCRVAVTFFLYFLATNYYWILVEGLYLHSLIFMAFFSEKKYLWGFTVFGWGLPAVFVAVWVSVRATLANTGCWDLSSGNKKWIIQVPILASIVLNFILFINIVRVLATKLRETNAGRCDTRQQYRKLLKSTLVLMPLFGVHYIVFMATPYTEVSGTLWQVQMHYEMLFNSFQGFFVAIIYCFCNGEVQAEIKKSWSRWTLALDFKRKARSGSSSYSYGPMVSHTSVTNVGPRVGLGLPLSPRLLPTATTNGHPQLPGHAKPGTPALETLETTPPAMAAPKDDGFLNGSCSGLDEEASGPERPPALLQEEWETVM
In experiment [9] the target is T1, Human CXCR4. As to the kind of experiment: displacement of [125I]-CXCL12, membranes from HEK293T cells transiently expressing CXCR4; n=4.
For experiment [10], the target named is Cannabinoid Receptor 1 (CB1R). As to the kind of experiment: Biacore (SPR); the table names no quantity, heading 'Binding of clones against CB1R'.
Cannabinoid Receptor 1 (CB1R), sequence (P47746 whole entry): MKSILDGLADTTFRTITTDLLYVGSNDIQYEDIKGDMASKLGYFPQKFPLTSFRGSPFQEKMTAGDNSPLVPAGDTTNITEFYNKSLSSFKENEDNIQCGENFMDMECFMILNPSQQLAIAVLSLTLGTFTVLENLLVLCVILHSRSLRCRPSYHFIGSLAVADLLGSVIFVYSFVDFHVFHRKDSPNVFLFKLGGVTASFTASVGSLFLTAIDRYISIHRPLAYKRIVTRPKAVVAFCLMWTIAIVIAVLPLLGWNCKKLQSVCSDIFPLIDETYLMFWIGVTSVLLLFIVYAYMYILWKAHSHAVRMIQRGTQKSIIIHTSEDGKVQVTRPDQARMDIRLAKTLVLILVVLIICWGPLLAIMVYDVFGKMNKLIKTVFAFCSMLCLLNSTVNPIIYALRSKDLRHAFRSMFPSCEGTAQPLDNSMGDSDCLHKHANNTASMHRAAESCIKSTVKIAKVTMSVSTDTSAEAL

T2 sequence (P25106 whole entry): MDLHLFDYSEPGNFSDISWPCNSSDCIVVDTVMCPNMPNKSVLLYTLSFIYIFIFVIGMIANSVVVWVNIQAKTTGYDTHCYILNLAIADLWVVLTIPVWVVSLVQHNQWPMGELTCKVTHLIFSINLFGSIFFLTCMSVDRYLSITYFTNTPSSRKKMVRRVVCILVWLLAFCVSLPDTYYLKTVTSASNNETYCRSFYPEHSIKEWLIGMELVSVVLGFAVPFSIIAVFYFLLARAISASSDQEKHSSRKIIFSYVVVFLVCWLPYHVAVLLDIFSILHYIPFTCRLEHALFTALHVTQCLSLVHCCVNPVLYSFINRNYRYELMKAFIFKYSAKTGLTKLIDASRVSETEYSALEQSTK
T1 sequence (P61073 other isoform, or with tags, fused parts or gaps): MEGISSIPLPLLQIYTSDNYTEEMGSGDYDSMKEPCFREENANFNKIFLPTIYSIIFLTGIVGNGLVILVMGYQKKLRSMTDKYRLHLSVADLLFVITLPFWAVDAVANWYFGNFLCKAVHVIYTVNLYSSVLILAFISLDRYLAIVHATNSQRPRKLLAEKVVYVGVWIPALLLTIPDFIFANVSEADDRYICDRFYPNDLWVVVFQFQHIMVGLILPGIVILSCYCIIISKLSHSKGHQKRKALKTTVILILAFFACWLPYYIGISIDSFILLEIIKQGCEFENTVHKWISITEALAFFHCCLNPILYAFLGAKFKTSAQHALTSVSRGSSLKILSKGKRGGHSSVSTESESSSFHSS

The Kd is a measure of binding affinity in units of concentration. For “PTH (1-34) (ligand) (from UniProt P01270 32-65) (peptide)”, the Kd fell in the range of 0.2 to 16 nM in experiment [1], 4 to 23 nM in experiment [2], 4 to 23 nM in experiment [3] and 0.2 to 16 nM in experiment [4]. As for mAb 12G5 (antibody), the displacement of radiolabeled 125I-CXCL12 with Human CXCR4 [5] amounted to 50%.

B1: PMPLG26-F2 (VHH)
VHH: EVQLVESGGGLVQAGGSLRLSCVASGFSFDDYAIGWFRQAPGQDREPLACITSGGTRNYNPSVMARFRIDRDNSVKTVYLQINTLKPEDTAVYYCSTELDRQGGSAHECREYDTWGQGTQVTVSS
Regarding B1, the Kd in [6] is 70 nM; in [7] it was 360 nM.

B2: 08A10 (VHH)
VHH: EVQLVESGGGLVQAGGSLRLSCAASGSIFSIAAMGWYRQATGKQRELVATITDGGTTTYADSVKGRVTISRDRSANTVYLAMNNLKPDDTAVYYCYAYLRYTSRVPGDNYWGQGTQVTVSS
notes: Group 2 anti-CXCR7 Nanobody; also called Nanobody 08A10
Consider B2, for which the binding result with Human CXCR7 is “binds”.

B3: PMPLG23-A3 (VHH)
VHH: EVQLVESGGGLVQAGGSLRLSCAASGLTFSNYAMGWFRQAPGKEREWVASINWSGGSTYYEDSVEGRFTISRDNAKNTVNLQMNSLKPEDTAVYYCAAKRGHYSREYDYWGQGTQVTVSS
In experiment [8], B3 came in with a Kd of 22 nM.

B4: 238D4-20GS-238D4 (VHH)
chain: EVQLMESGGGLVQAGGSLRLSCAASGRTFNNYAMGWFRRAPGKEREFVAAITRSGVRSGVSAIYGDSVKDRFTISRDNAKNTLYLQMNSLKPEDTAVYTCAASAIGSGALRRFEYDYSGQGTQVTVSSGGGGSGGGGSGGGGSGGGGSEVQLMESGGGLVQAGGSLRLSCAASGRTFNNYAMGWFRRAPGKEREFVAAITRSGVRSGVSAIYGDSVKDRFTISRDNAKNTLYLQMNSLKPEDTAVYTCAASAIGSGALRRFEYDYSGQGTQVTVSS
notes: also called L13
For orientation: Ki means a dissociation constant, usually derived from enzyme kinetics or from competition with a known ligand. A lower Ki goes with tighter binding. As for B4, affinity with Human CXCR4 [9] was put at a Ki of 1 nM.

B5: LGPMP6_B7 (VHH)
VHH: EVQLVESGGGLVQAGGSLRLSCAASGRTLRNYDMGWFRQAPGKEREFVATIRWSTSETYYADSVKGRFTISSDNAKNTVDLQMNSLTPGDTGVYYCAARSVYSYDYNYWGQGTQVTVSS
Consider B5, for which, in experiment [10], the Kd turned out to be 12 nM.

B6: LGPMP5_G11 (VHH)
VHH: EVQLVKSGGGLVQAGGSLRLSCAASGRTLSNYDMGWFRQAPGKEREFVATIRWSTGETYYTDSVKGRFTISKDNTKNTVDLQMNSLTPEDTAVYYCASRSVYSYEYNYWGQGTQVTVSS
B6: the Kd in experiment [10] worked out at 12 nM.

B7: 01C10 (VHH)
VHH: EVQLVESGGGLVQTGASLRLSCAASGRTFSNYAMGWFRQAPGKERERVAAITPRAFTTYYADSVKGRFTISRDNAKNTAYLQMVSLKPEDTAVYYCAAQLVGSGSNLGRQESYAYWGQGTQVTVSS
notes: Group 1 anti-CXCR7 Nanobody; also called Nanobody 01C10
Take B7: the binding result with Human CXCR7 is given as “binds”.

B8: 08A05 (VHH)
VHH: EVQLVESGGGLVQAGDSLRLSCAASGLTFSNYDMGWFRQAPGKEREFVGASWWSGGAPYYSDSVKGRFTISRDNAKNTVYLQANSLRPEDTAVYYCAAKRLRSFASGGSYDYWGQGTQVTVSS
notes: Group 2 anti-CXCR7 Nanobody; also called Nanobody 08A05
Consider B8, for which the binding result with Human CXCR7 is given as “binds”.

B9: LGPMP6_H4 (VHH)
VHH: EVQLVESGGGLVQAGGSLRLACAASGSIFSFNAMGWYRQAPGKQRELLAVITRDGITKYADSVKGRFTISRDNAKNTMYLQMNSLKPEDTAVYYCHTGLPTGRGSHSDYWGQGTQVTVSS
The molecule B9 had a Kd in [10] of 36 nM.

B10: PMPLG22-A3 (VHH)
VHH: EVQLVESGGGLVQAGGSLRLSCAASGNIFANNIMGWYRQPPGKEREFVAHVSHDGDSMYAVSVKGRFAISRKDATNLYLQMNSLKPEDTAIYFCRLLNIPTQGRMEGFWGQGTQVTVSS
For the molecule B10, the results for the Kd in [8] and in experiment [6] were 17 nM and 9 nM, respectively.

B11: PMPLG26-A6 (VHH)
VHH: EVQLVESGGGLVQAGGSLRLSCAASRSRSSFDDMGWYRQAPGKQREFVGGITLGGSTIYADSVKGRFTISMDSARNTGYLQMNSLKPEDTAVYYCNAALDGYSGSSWGQGTQVTVSS
In [8], B11 yielded a Kd of 17 nM.
